The target of one series is T1, TraI1-1475 (Escherichia coli conjugative plasmid R1?, UniProt Q6TDU5 1-1475).
T1 sequence: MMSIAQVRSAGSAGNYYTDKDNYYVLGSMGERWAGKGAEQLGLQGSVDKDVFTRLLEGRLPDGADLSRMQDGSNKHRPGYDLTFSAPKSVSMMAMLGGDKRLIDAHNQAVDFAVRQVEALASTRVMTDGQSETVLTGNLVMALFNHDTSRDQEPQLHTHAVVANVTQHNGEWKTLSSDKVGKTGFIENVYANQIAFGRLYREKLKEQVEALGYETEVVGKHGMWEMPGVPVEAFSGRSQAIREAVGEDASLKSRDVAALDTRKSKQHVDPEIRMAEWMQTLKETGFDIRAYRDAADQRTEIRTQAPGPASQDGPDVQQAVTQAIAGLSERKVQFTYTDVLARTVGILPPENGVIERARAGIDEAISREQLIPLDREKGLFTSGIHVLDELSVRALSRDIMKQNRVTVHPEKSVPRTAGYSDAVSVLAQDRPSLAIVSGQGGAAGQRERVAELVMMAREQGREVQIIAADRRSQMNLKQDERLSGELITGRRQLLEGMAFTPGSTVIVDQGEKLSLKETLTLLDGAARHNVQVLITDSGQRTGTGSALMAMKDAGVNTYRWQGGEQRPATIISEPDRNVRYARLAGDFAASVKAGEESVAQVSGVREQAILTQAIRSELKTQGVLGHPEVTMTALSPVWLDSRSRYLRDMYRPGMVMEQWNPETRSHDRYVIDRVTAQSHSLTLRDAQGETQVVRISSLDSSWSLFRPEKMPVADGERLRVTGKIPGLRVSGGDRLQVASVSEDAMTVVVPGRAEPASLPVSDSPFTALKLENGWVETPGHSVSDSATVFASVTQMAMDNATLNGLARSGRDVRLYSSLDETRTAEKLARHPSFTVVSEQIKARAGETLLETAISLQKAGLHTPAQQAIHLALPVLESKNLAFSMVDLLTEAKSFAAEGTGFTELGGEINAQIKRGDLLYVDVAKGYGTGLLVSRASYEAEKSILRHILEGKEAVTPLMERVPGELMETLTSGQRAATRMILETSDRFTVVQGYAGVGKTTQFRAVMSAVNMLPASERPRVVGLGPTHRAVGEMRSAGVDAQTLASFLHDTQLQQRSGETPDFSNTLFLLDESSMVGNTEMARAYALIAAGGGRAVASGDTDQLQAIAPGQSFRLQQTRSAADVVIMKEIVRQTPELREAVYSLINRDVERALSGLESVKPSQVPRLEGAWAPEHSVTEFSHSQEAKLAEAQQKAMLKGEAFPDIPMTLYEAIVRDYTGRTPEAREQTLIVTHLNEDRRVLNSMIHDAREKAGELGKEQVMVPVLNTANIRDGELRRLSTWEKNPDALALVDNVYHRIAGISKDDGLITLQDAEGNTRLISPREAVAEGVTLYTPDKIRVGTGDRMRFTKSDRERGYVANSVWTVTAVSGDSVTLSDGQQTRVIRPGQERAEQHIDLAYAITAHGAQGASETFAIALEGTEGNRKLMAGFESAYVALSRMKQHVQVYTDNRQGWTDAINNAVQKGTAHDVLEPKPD
Briefly: size exclusion chromatography; after 365 nm photocleavage, peak V; Anisotropy: 10 nM 22-merAlexa488, 50 mM Tris pH 7.2, 100 mM NaCl, 25 C, 20 min; complexes for gel filtration: protein and ssDNA mixed on ice 10 min (stocks in 50 mM Tris pH 7.2, 100 mM NaCl); EPR complexes: PBS pH 7.4, 1 mM MgCl2. The note with it: protein: recombinant; tags: N-terminal His6 with enterokinase site; label: 5'-Cy5; inverted repeat. On the technique in general: Size exclusion chromatography separates by hydrodynamic size, large species first.

For the next series, the target named is TraI A1105W/M795A (Escherichia coli conjugative plasmid R1?, UniProt Q6TDU5 1-1756, A1105W;M795A). Kind of series: fluorescence anisotropy; higher affinity than the single mutants A1105W and M795A; Kd only in figure; Anisotropy: 10 nM 22-merAlexa488, 50 mM Tris pH 7.2, 100 mM NaCl, 25 C, 20 min; complexes for gel filtration: protein and ssDNA mixed on ice 10 min (stocks in 50 mM Tris pH 7.2, 100 mM NaCl); EPR complexes: PBS pH 7.4, 1 mM MgCl2. The note with it: protein: recombinant; tags: N-terminal His6 with enterokinase site; label: 3'-Alexa488. On the technique in general: Fluorescence polarisation rises when a labelled molecule tumbles more slowly, as on binding a larger partner.

Series [1] deals with T2, TraI relaxase wild-type (Escherichia coli conjugative plasmid R1 …, UniProt Q6TDU5 1-1756). Kind of series: limited trypsin proteolysis; 1:1 complex; pattern as with 22-mer; Anisotropy: 10 nM 22-merAlexa488, 50 mM Tris pH 7.2, 100 mM NaCl, 25 C, 20 min; complexes for gel filtration: protein and ssDNA mixed on ice 10 min (stocks in 50 mM Tris pH 7.2, 100 mM NaCl); EPR complexes: PBS pH 7.4, 1 mM MgCl2. The note with it: protein: recombinant; tags: N-terminal His6 with enterokinase site.

Series [2] has as its target T2, TraI relaxase wild-type. Kind of series: size exclusion chromatography; protein:ssDNA 1:1, 2:1, 4:1; TraI dimer forms on 49-mer; Anisotropy: 10 nM 22-merAlexa488, 50 mM Tris pH 7.2, 100 mM NaCl, 25 C, 20 min; complexes for gel filtration: protein and ssDNA mixed on ice 10 min (stocks in 50 mM Tris pH 7.2, 100 mM NaCl); EPR complexes: PBS pH 7.4, 1 mM MgCl2. As to conditions: protein: recombinant; tags: N-terminal His6 with enterokinase site; inverted repeat 5' of nic.

The target of series [3] is T2, TraI relaxase wild-type. Briefly: limited trypsin proteolysis; open, protease-sensitive conformer; Anisotropy: 10 nM 22-merAlexa488, 50 mM Tris pH 7.2, 100 mM NaCl, 25 C, 20 min; complexes for gel filtration: protein and ssDNA mixed on ice 10 min (stocks in 50 mM Tris pH 7.2, 100 mM NaCl); EPR complexes: PBS pH 7.4, 1 mM MgCl2. The note with it: protein: recombinant; tags: N-terminal His6 with enterokinase site; inverted repeat.

For another series, the target named is TraI-MBP (Escherichia coli conjugative plasmid R1?, UniProt Q6TDU5 1-1756). Briefly: size exclusion chromatography; after 365 nm photocleavage, peak IV; Anisotropy: 10 nM 22-merAlexa488, 50 mM Tris pH 7.2, 100 mM NaCl, 25 C, 20 min; complexes for gel filtration: protein and ssDNA mixed on ice 10 min (stocks in 50 mM Tris pH 7.2, 100 mM NaCl); EPR complexes: PBS pH 7.4, 1 mM MgCl2. As to conditions: protein: recombinant; tags: N-terminal His6 with enterokinase site; C-terminal MBP via TPGSP linker; label: 3'-6-FAM.

Consider GCAAAAACTTGTTTTTGCGTGGGGTGTGGT (ssDNA, 3' end from PC linker photocleavage) [Cy5-30-mer photocleavage product], for which, in the series with TraI1-1475, the binding result is “binds”. Consider GGTGCTTTTGGTGGTGAGAACC (ssDNA) [22-merAlexa488], for which the binding result with TraI A1105W/M795A is listed as “binds”. In the case of GCTTTTGGTGGTGAGAACC (ssDNA) [19-mer], the binding result with TraI relaxase wild-type [1] is reported as “binds”.

Take GCAAAAACTTGTTTTTGCGTGGGGTGTGGTGCTTTTGGTGGTGAGAACC (ssDNA) [49-mer oriT]: in the series with TraI relaxase wild-type [2], the binding result is on record as “binds”. As to GCAAAAACTTGTTTTTGCGTGGGGTGTGGT (ssDNA) [30-mer], the binding result in the series with TraI relaxase wild-type [3] is “binds”.

Turning to GCTTTTGGTGGTGAGAACC (ssDNA, 5' end from PC linker photocleavage) [19-mer-6-FAM photocleavage product], in the series with TraI-MBP, the binding result is “binds”.
